Data: PMC12229552 (Nature Communications, 2025)

Molecular target: GST-tagged human EZH2 (human, UniProt Q15910-2 1-751)
Test: pull-down

B1: 6×His-tagged human DDX1 (natural protein, UniProt Q92499-1 1-740, looked up)
chain: MAAFSEMGVMPEIAQAVEEMDWLLPTDIQAESIPLILGGGDVLMAAETGSGKTGAFSIPVIQIVYETLKDQQEGKKGKTTIKTGASVLNKWQMNPYDRGSAFAIGSDGLCCQSREVKEWHGCRATKGLMKGKHYYEVSCHDQGLCRVGWSTMQASLDLGTDKFGFGFGGTGKKSHNKQFDNYGEEFTMHDTIGCYLDIDKGHVKFSKNGKDLGLAFEIPPHMKNQALFPACVLKNAELKFNFGEEEFKFPPKDGFVALSKAPDGYIVKSQHSGNAQVTQTKFLPNAPKALIVEPSRELAEQTLNNIKQFKKYIDNPKLRELLIIGGVAARDQLSVLENGVDIVVGTPGRLDDLVSTGKLNLSQVRFLVLDEADGLLSQGYSDFINRMHNQIPQVTSDGKRLQVIVCSATLHSFDVKKLSEKIMHFPTWVDLKGEDSVPDTVHHVVVPVNPKTDRLWERLGKSHIRTDDVHAKDNTRPGANSPEMWSEAIKILKGEYAVRAIKEHKMDQAIIFCRTKIDCDNLEQYFIQQGGGPDKKGHQFSCVCLHGDRKPHERKQNLERFKKGDVRFLICTDVAARGIDIHGVPYVINVTLPDEKQNYVHRIGRVGRAERMGLAISLVATEKEKVWYHVCSSRGKGCYNTRLKEDGGCTIWYNEMQLLSEIEEHLNCTISQVEPDIKVPVDEFDGKVTYGQKRAAGGGSYKGHVDILAPTVQELAALEKEAQTSFLHLGYLPNQLFRTF
binding result: binds
